Here are results for 32 molecules from patent US20210388087A1 (Chugai, published 2021).

The chains are these.
B1: CE115HA000 G98D (antibody, human IgG1, kappa, L234A L235A, N297A, name in Kabat numbering)
heavy: QVQLVESGGGVVQPGRSLRLSCAASGFTFSNAWMHWVRQAPGKGLEWVAQIKAKSNNYATYYAESVKGRFTISRDDSKNSLYLQMNSLKTEDTAVYYCRYVHYDAYYGVDAWGQGTTVTVSSASTKGPSVFPLAPSSKSTSGGTAALGCLVKDYFPEPVTVSWNSGALTSGVHTFPAVLQSSGLYSLSSVVTVPSSSLGTQTYICNVNHKPSNTKVDKKVEPKSCDKTHTCPPCPAPEAAGGPSVFLFPPKPKDTLMISRTPEVTCVVVDVSHEDPEVKFNWYVDGVEVHNAKTKPREEQYASTYRVVSVLTVLHQDWLNGKEYKCKVSNKALPAPIEKTISKAKGQPREPQVYTLPPSRCELTKNQVSLSCAVKGFYPSDIAVEWESNGQPENNYKTTPPVLDSDGSFFLVSKLTVDKSRWQQGNVFSCSVMHEALHNHYTQKSLSLSPDYKDDDDK
chain: EPKSSDKTHTCPPCPAPELLGGPSVFLFPPKPKDTLMISRTPEVTCVVVDVSHEDPEVKFNWYVDGVEVHNAKTKPREEQYNSTYRVVSVLTVLHQDWLNGKEYKCKVSNKALPAPIEKTISKAKGQPREPQVCTLPPSRDELTKNQVSLWCLVKGFYPSDIAVEWESNGQPENNYKTTPPVLDSDGSFFLYSKLTVDKSRWQQGNVFSCSVMHEALHNRYTQKSLSLSP
light: DIVMTQSPLSLPVTPGEPASISCRSSQSLVHSNRNTYLHWYQQKPGQAPRLLIYKVSNRFSGVPDRFSGSGSGTDFTLKISRVEAEDVGVYYCGQGTQVPYTFGQGTKLEIKRTVAAPSVFIFPPSDEQLKSGTASVVCLLNNFYPREAKVQWKVDNALQSGNSQESVTEQDSKDSTYSLSSTLTLSKADYEKHKVYACEVTHQGLSSPVTKSFNRGEC
notes: one-arm antibody
B2: CE115HA000 G100bL (antibody, human IgG1, kappa, L234A L235A, N297A, name in Kabat numbering)
heavy: B1 heavy with D104G, G108L
chain: B1 chain
light: B1 light
notes: one-arm antibody
B3: CE115HA000 G98P (antibody, human IgG1, kappa, L234A L235A, N297A, name in Kabat numbering)
heavy: B1 heavy with D104P
chain: B1 chain
light: B1 light
notes: one-arm antibody
B4: CE115HA000 H35R (antibody, human IgG1, kappa, L234A L235A, N297A, name in Kabat numbering)
heavy: B1 heavy with H35R, D104G
chain: B1 chain
light: B1 light
notes: one-arm antibody
B5: CE115HA000 G100bY (antibody, human IgG1, kappa, L234A L235A, N297A, name in Kabat numbering)
heavy: B1 heavy with D104G, G108Y
chain: B1 chain
light: B1 light
notes: one-arm antibody
B6: CE115HA000 H35K (antibody, human IgG1, kappa, L234A L235A, N297A, name in Kabat numbering)
heavy: B1 heavy with H35K, D104G
chain: B1 chain
light: B1 light
notes: one-arm antibody
B7: CE115HA000 G100bF (antibody, human IgG1, kappa, L234A L235A, N297A, name in Kabat numbering)
heavy: B1 heavy with D104G, G108F
chain: B1 chain
light: B1 light
notes: one-arm antibody
B8: CE115HA000 H35W (antibody, human IgG1, kappa, L234A L235A, N297A, name in Kabat numbering)
heavy: B1 heavy with H35W, D104G
chain: B1 chain
light: B1 light
notes: one-arm antibody
B9: CE115HA000 H35T (antibody, human IgG1, kappa, L234A L235A, N297A, name in Kabat numbering)
heavy: B1 heavy with H35T, D104G
chain: B1 chain
light: B1 light
notes: one-arm antibody
B10: CE115HA000 H35N (antibody, human IgG1, kappa, L234A L235A, N297A, name in Kabat numbering)
heavy: B1 heavy with H35N, D104G
chain: B1 chain
light: B1 light
notes: one-arm antibody
B11: CE115HA000 G98T (antibody, human IgG1, kappa, L234A L235A, N297A, name in Kabat numbering)
heavy: B1 heavy with D104T
chain: B1 chain
light: B1 light
notes: one-arm antibody
B12: CE115HA000 G98R (antibody, human IgG1, kappa, L234A L235A, N297A, name in Kabat numbering)
heavy: B1 heavy with D104R
chain: B1 chain
light: B1 light
notes: one-arm antibody
B13: CE115HA000 G100bS (antibody, human IgG1, kappa, L234A L235A, N297A, name in Kabat numbering)
heavy: B1 heavy with D104G, G108S
chain: B1 chain
light: B1 light
notes: one-arm antibody
B14: CE115HA000 H35Y (antibody, human IgG1, kappa, L234A L235A, N297A, name in Kabat numbering)
heavy: B1 heavy with H35Y, D104G
chain: B1 chain
light: B1 light
notes: one-arm antibody
B15: CE115HA000 H35I (antibody, human IgG1, kappa, L234A L235A, N297A, name in Kabat numbering)
heavy: B1 heavy with H35I, D104G
chain: B1 chain
light: B1 light
notes: one-arm antibody
B16: CE115HA000 H35F (antibody, human IgG1, kappa, L234A L235A, N297A, name in Kabat numbering)
heavy: B1 heavy with H35F, D104G
chain: B1 chain
light: B1 light
notes: one-arm antibody
B17: CE115HA000 H35S (antibody, human IgG1, kappa, L234A L235A, N297A, name in Kabat numbering)
heavy: B1 heavy with H35S, D104G
chain: B1 chain
light: B1 light
notes: one-arm antibody
B18: CE115HA000 G98H (antibody, human IgG1, kappa, L234A L235A, N297A, name in Kabat numbering)
heavy: B1 heavy with D104H
chain: B1 chain
light: B1 light
notes: one-arm antibody
B19: CE115HA000 H35Q (antibody, human IgG1, kappa, L234A L235A, N297A, name in Kabat numbering)
heavy: B1 heavy with H35Q, D104G
chain: B1 chain
light: B1 light
notes: one-arm antibody
B20: CE115HA000 H96G (antibody, human IgG1, kappa, L234A L235A, N297A, name in Kabat numbering)
heavy: B1 heavy with H102G, D104G
chain: B1 chain
light: B1 light
notes: one-arm antibody
B21: CE115HA000 H35D (antibody, human IgG1, kappa, L234A L235A, N297A, name in Kabat numbering)
heavy: B1 heavy with H35D, D104G
chain: B1 chain
light: B1 light
notes: one-arm antibody
B22: CE115HA000 H35E (antibody, human IgG1, kappa, L234A L235A, N297A, name in Kabat numbering)
heavy: B1 heavy with H35E, D104G
chain: B1 chain
light: B1 light
notes: one-arm antibody
B23: CE115HA000 G100bE (antibody, human IgG1, kappa, L234A L235A, N297A, name in Kabat numbering)
heavy: B1 heavy with D104G, G108E
chain: B1 chain
light: B1 light
notes: one-arm antibody
B24: CE115HA000 G100bD (antibody, human IgG1, kappa, L234A L235A, N297A, name in Kabat numbering)
heavy: B1 heavy with D104G, G108D
chain: B1 chain
light: B1 light
notes: one-arm antibody
B25: CE115HA000 G98S (antibody, human IgG1, kappa, L234A L235A, N297A, name in Kabat numbering)
heavy: B1 heavy with D104S
chain: B1 chain
light: B1 light
notes: one-arm antibody
B26: CE115HA000 G98Y (antibody, human IgG1, kappa, L234A L235A, N297A, name in Kabat numbering)
heavy: B1 heavy with D104Y
chain: B1 chain
light: B1 light
notes: one-arm antibody
B27: CE115HA000 G98K (antibody, human IgG1, kappa, L234A L235A, N297A, name in Kabat numbering)
heavy: B1 heavy with D104K
chain: B1 chain
light: B1 light
notes: one-arm antibody
B28: CE115HA000 H35V (antibody, human IgG1, kappa, L234A L235A, N297A, name in Kabat numbering)
heavy: B1 heavy with H35V, D104G
chain: B1 chain
light: B1 light
notes: one-arm antibody
B29: CE115HA000 H35M (antibody, human IgG1, kappa, L234A L235A, N297A, name in Kabat numbering)
heavy: B1 heavy with H35M, D104G
chain: B1 chain
light: B1 light
notes: one-arm antibody
B30: CE115HA000 H35G (antibody, human IgG1, kappa, L234A L235A, N297A, name in Kabat numbering)
heavy: B1 heavy with H35G, D104G
chain: B1 chain
light: B1 light
notes: one-arm antibody
B31: CE115HA000 G98Q (antibody, human IgG1, kappa, L234A L235A, N297A, name in Kabat numbering)
heavy: B1 heavy with D104Q
chain: B1 chain
light: B1 light
notes: one-arm antibody
B32: CE115HA000 H35L (antibody, human IgG1, kappa, L234A L235A, N297A, name in Kabat numbering)
heavy: B1 heavy with H35L, D104G
chain: B1 chain
light: B1 light
notes: one-arm antibody

Numbering of substitutions follows the chain as printed.

In the assay the target is T1, CD3 epsilon homodimer protein (UniProt P07766 23-126).
T1 construct: also called CD3 (CD3 epsilon)
T1 sequence (P07766 23-126): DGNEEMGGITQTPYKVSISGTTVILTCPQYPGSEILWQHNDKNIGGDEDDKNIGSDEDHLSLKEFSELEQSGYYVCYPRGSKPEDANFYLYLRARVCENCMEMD
As to the kind of experiment: SPR, CD3 epsilon homodimer on chip, one-arm antibody as analyte.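 Note: surface plasmon resonance at 25 °C with CD3 epsilon homodimer amine-coupled to a CM4 sensor chip, antibody injected as analyte, HBS-EP+ as running buffer.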 A general note: Surface plasmon resonance follows binding to a sensor surface in real time, without labels.
In the case of B1, the “KD ratio (KD of CE115HA000/KD of altered form)” value (shortened to “KD ratio”) was determined as 2.36.

B2: the “KD ratio” value came out at 5.84. In the case of B3, the “KD ratio” value was 0.88. As for B4, the “KD ratio” value came to 15400. With B5, the “KD ratio” value was found to be 51.4.

As to B6, the “KD ratio” value was found to be 14.4. The same measure for B7: 4.37; for B8: 50.4; for B9: 4.4. Then B10, with 2.88; and B11, with 0.93; and B12, with 4.69. For B13, the “KD ratio” value is 1.25. Consider B14, for which the “KD ratio” value turned out to be 119000. With B15, the “KD ratio” value came to 7.23.

For B16, the “KD ratio” value was 53.6.

In the case of B17, the “KD ratio” value came to 2.93. As to B18, the “KD ratio” value is 1.14.

Consider B19, for which the “KD ratio” value is 4.8. Take B20: the “KD ratio” value stood at 0.8. In the case of B21, the “KD ratio” value is 69.

For the molecule B22, the “KD ratio” value was determined as 70.3.

Regarding B23, the “KD ratio” value amounted to 7.29.

On to B24, for which the “KD ratio” value stood at 6.25. As to B25, the “KD ratio” value worked out at 0.98.

Take B26: the “KD ratio” value came out at 2.75. Turning to B27, the “KD ratio” value came out at 4.85. Then B28, with 28.1. B29: the “KD ratio” value turned out to be 3.98. As for B30, the “KD ratio” value is 45.8. In the case of B31, the “KD ratio” value amounted to 1.04.

Take B32: the “KD ratio” value worked out at 4.8.
